Results published in paper PMC3232166, “Seleno-detergent MAD phasing of leukotriene C4 synthase in complex with dodecyl-β-D-selenomaltoside” (Acta Crystallographica Section F, 2011).

Target: the molecule itself
Assay: crystal structure; LTC4S with SeDDM and GSH, sitting-drop vapour diffusion at 293 K, 0.1 M MES-NaOH pH 6.5, 1.6 M ammonium sulfate, 0.4 M MgCl2; space group F23, Se MAD phasing, refined at 3.2 A

B1: Human leukotriene C4 synthase (enzyme)
chain: MKDEVALLAAVTLLGVLLQAYFSLQVISARRAFRVSPPLTTGPPEFERVYRAQVNCSEYFPLFLATLWVAGIFFHEGAAALCGLVYLFARLRYFQGYARSAQLRLAPLYASARALWLLVALAALGLLAHFLPAALRAALLGRLRTLLPWA
notes: Leukotriene C4 synthase, human; 17 kDa monomer; construct as described previously (Ago et al., 2007; Saino et al., 2011); also called LTC4S
stoichiometry N: 3
